Data set [1] concerns the target AtWRKY33 (Arabidopsis, UniProt Q8S8P5 1-519). The data set is described as follows: EMSA; not stated; EMSA as in Zheng et al., 2006. The note with it: protein: recombinant; tags: His (pET32a); label: labelled by Klenow fill-in. In general terms: A gel shift assay detects complexes by their altered migration in electrophoresis.
Data set [2] addresses T1, GmWRP1 (Glycine max, UniProt I1MBG9 1-332).
T1 sequence: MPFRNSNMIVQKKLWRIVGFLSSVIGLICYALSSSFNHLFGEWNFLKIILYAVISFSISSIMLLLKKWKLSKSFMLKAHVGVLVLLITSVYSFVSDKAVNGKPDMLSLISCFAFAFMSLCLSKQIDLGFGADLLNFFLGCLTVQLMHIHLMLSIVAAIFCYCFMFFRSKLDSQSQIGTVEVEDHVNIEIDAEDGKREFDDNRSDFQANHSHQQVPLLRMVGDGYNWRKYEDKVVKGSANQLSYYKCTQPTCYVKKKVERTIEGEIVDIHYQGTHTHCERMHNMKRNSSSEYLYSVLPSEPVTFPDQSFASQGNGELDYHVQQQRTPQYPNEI
The data set is described as follows: EMSA; not stated; EMSA as in Zheng et al., 2006. The note with it: protein: recombinant; tags: His (pET32a); label: labelled by Klenow fill-in.

AtWRKY33, sequence (Q8S8P5 whole entry): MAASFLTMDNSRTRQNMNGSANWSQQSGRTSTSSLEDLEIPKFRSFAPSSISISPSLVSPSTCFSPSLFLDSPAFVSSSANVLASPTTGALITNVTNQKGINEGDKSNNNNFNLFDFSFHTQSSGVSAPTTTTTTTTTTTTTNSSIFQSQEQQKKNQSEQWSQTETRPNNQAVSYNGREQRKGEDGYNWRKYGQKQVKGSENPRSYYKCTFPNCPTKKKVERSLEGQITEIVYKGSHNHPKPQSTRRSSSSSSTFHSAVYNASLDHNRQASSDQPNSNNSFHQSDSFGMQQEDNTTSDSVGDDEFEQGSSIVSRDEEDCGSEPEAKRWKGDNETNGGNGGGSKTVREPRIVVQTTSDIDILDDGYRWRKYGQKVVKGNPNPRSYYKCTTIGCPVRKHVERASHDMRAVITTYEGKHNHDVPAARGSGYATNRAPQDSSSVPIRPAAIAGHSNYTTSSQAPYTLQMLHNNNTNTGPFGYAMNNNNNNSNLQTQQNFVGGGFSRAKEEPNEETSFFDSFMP

B1: Pchn0 (dsDNA)
DNA 1: GGAACTTGACCTTGACCTTAGGGCTGCAGGAATTCG
DNA 2: CGAATTCCTGCAGCCCTAAGGTCAAGGTCAAGTTCC
As to B1, the figures for the binding result in data set [1] and in data set [2] were “binds” and “no binding”, respectively.

B2: mPchn0 (dsDNA)
DNA 1: GGAACTTGAACTTGAACTTAGGGCTGCAGGAATTCG
DNA 2: CGAATTCCTGCAGCCCTAAGTTCAAGTTCAAGTTCC
Turning to B2, the binding result in data set [1] and in data set [2] was “no binding” each time.

For the origin of these results see paper PMC4449531, “Identification and characterization of a novel group of legume-specific, Golgi apparatus-localized WRKY and Exo70 proteins from soybean”.
